Source: a protein production outcome set (Wang et al. 2014)

Test: label from the status in PepcDB records

Sequence	protein production
MATTTSAACPIFSLSLLGRFVLTGPDGAVSLPNKKLAGLLAFLACMAPDPQSREKLSTLLWGSYLDAQAKQNLRQALFKLRQILGQDALRSDGELVSLNAMVIACDVSQFEELVQDGSRDALSAAADLYRGRLADDISVGEECWSEWVAGERERLSELALGAMVTLGGHELSEGRAEQALRTGQRANALNNLREDSHRLIMRALSATGRNAEALKYYRDVVALLKRELSTEPDLATRSLAAELRSNHPQNAAPAAGEVAPEASPPPALVMHGERPSLVVLPFSNMSGDPEQDYFADGVTADIITALSRFRALVVIARGTSFALRDKGMTSQQIAQQLGVQYVLSGQIRKAGNRIRVSAELTHSGSEAQVWSDRYDRPLTDIFDLQDDVSSSVAAVVDPAVRSAEIERARRKPPTNLSAYDLYLRALHHLWGGTREDITKAIDLLRQSLSLDEARSPTLAALAWGLVMASPLGAHTSPDATTEALSLARRAVEQDGTDAFAHAVYGFTLFGPAGDNDQGRIHAVEAVRLNPSSAFAWGTLGMIDSMAGDYENAVTCLHRSLVLSPYDSMLHLWMTGLTASCFALGRHEDGIAWARKSVQHNPGNGTGHRMLAANLVAAGRLEEAREITRRRDATQKTTIRDLRAMRFFKQNDALERYLSAQQVAGVAD	failed
MNKAGARASDQETRRFGFVEWFRPGDYERAEVALPDILESGASYLRTHLSWAEYLAPGGQQWFDWLIPRIGGQIDLLPCIHYTPPSLSRTGRSSGPPVNLKSYADFVDHVLTRYGRYISHIELWNEPNNLLDWDWRHDSDFLLFCEMVGGAAYWAKQRGYKPVLGGPCPFDPYWLNLMGTRGVLGVVDAVGFHGFPGTWDSEEATWGGWDMHLGEMRGIIDRYNADAEIWITETGYSTWRNDEIEQARRFTKALKVPADRMYWYSWRDVPPDVPVQEGLWFDPRHYHLGAVSHDNKPKLLARLLTEGGVKRLEEVAALAAPNITSGAAPIIVTGGSGFVGCNLADRLLSDGEDVIILDNLARSGVDQNLSWLKERHGGRVHPVLADVRDLLGIEAAFRDAKAVFHYAAQTAVTTSLVDPLEDFETNARGTLNVLESIRRAGKRAPIIFASTNKVYGALDDLGMIELDDRYLPEDESIRTLGIGEDRPLDFCTPYGCSKGVADQYILDYAKSYGIPAAVLRMSCIYGPRQFGTEDQGWVAHFLIRALGGEPISIYGDGKQVRDILHVDDAVAAYRVLLSNIGQVSGKAFNLGGGPRNAVSVLAVLREIEELAGRPVETSFGPWRAGDQLYFVADTTRLEQETGWQAGIGWRHGLRHLAEWLIAHRFGGRQIRREKRKASA	failed
MNSGDNIIKKKSFTFAVRIVNLYKVLSSEIKEFVMSKQLLRSGTSVGANIREALNAQSKPGFIHKLAISQKECDETGYTNNVEFESMNTDAIELLKIVRSIIMTSKKNIIHNSLEHHHHHH	failed
MLWSFIAVCFSAWLYVDASYRGPAWRRWVFKPVTLILLLLLAWQAPMFNAISYLVLAGLCASLLGDALTLLPRQRVMYAVGAFFLSHLLYTIWFASQLTLSFFWPLPLVLLVFGALLMAVIWSRLEEMKMPVLTFIGMTLVMVWLAGELWFARPTNTALSGFAGAALLLLSNAVWLVSHYRRRFRADNAIAAAFYFAGHFLIVRALYL	failed
MSVRVYIGNLPRDIEQAELDAVFAEAGEVSAKLVTDRKTGKSRGFAFATVASDELADALIERFNGTEVQGSTLKLEKAQPRERDNEGGNNRRRSGGGGNDNRRSGKSAPRVISSGPEGFQPDPRWAQELEKLKELLAAQTVS	failed
MQPIDRAQAQQRANDILVFQRELQRLDQEQAFRLEPAQARQLADYHLALLDSYRDRFDIDHDLRSQQLSLGMRVASFFGALAFAASVFLLFYRFWGLFPTVAQVAILIGSAFAAFFATLWVQAKDASGYFSKLAAMVAFACFVLDLTMLGQIFNVTPSDLALVPWALYALLLAYLCNARLLLAAAILCVMGFIAARVGTWGGGYWLSVGERPENFFPAAALIFAVPLCFDQRNFSGFAVIYRVFALLGLFLPMLVLANWGSGSYLALPSALIEGLYQVAGFVAAALVIWLGARRNWADVSNTGITFFVIFLYTKFFDWWWEAMPKYLFFLVLGLSALLILLVLRRLRTPLGIAARTDA	failed
MYKILEKKEIAMRNTWYKVYAPHVAKKVQPGQFVIVRAFPNGERIPLTPVMWDREEGWIVLIVFTRGKTTMRMAVELKEGDSLLNVAGPLGTPVPMEKFGKILAIGAYTGIVEVYPIAKAWQEIGNDVTTLHVTFEPMVILKEELEKAVTRHIVEPVPLNPNQDFLANMKNVSQRLKEKVRELLESEDWDLVFMVGPVGDQKQVFEVVKEYGVPMKVDLHPIMVDGTGMCGACRVTVGGEVKFACVDGPEFDAYQVDWDELIHRVGFYAKLEKLALEKYMEELKAKGVILEHHHHHH	failed
MTDAPLGRSAVYTILTTGYVGSTGPGVAATVSYVADGGRHVVFDPGMVASRDHILGPLAELGLGPDDITDVVLSHHHPDNTMNVGLFGRATVHDHKVEYLGDQWRNRDAEGYELTPSLRLIRTPGHSLEDITLLAGTDTGVVAFAGDLWWHSDGPADDPVAPDREVLRASRLRVLAAADLIVPGHGSPFKADITAPRLEHHHHHH	not failed
MYLPTHFKQENQAELFDLIEHHPLGTLIVMHADGLEVNHIPFELDRLHLPAGILRGHIAKANPLASLLSEPQSAYVIFQAEQHYISPNWYPGKQEHHRVVPTWNYRVVHATGQLSVIEDQKYLRGVLARLTRQHEADQPAPWRLSDAPADFIEQQLEKIMAIEFNIESIIGKFKLSQNRSQADVAGVIAALNELEPQIANSIHKFYPK	failed
MRHWLILFLLALPCLAGAVSFNEQVERLPLGQSIDVFEDVRGSADINDITSRAIDSSFRRHDKDVLNAGYSRSVFWLRLDLDYRPVASSDPRTWLLELAYPPLDKLDLYLPDGQGGYRLAQRTGDTLPFASRPIRQNNYLFELGLEPNKPQRVYLRLESQGSIQAPLTLWSPKAYLEEQPERIYVLGIIYGVLLVMLIYNLFIFLSVRDTSYLYYILYIASFGLYQVSVNGAGIEYFWPDSPWWANAATPFLIGSAALFGCQFARSFLHTRDHSVWVDRGLLALMAVGALVMLMALTMSYAVALRLATYLALAFTGLIFAAGILAWLRGMRVARYFIIAWTAFLLGGIVNTLMVLGYLPNMFLTMYASQIGSALEVGLLSLALADRINAMKEERARILQESSRKLEALNQELANSNRLKDEFLATVTHELRTPMSGVIGSLELMQTVPMDVELAEYQRTAAGSARDMMRMVNDILALIELQAGKLYPRREPFSLRGLFDSLRAQYAPRVEEKGLRFALQLDDSLPDTLEGDAGKLAQALGYLVDNAIKFTARGSVTLRVAAGRTHDGVALRVEVIDTGIGFDMAAGSDLYQRFVQADSSLTRGYGGLGIGLALCRKLVELLGGELTHESRPGQGSRFLLRLQLTQPAQGLAPPPRRAGGQAVRRPEECTVLVVEDNAINQLVTRGMLLKLGYRVRTADNGSEALELLARERPDGVLLDCQMPVMDGFATCRAIRALPGCAELPVLALTAHSHSGDRERCLAAGMSDYMAKPVKFEELQTLLHDWLLCQPIVTKSA	failed
MSKFTIHTIETAPERVKETLRTVKKDNGGYIPNLIGLLANAPTALETYRTVGEINRRNSLTPTEREVVQITAAVTNGCAFCVAGHTAFSIKQIQMAPDLLEALRNATPIDDDPKLDTLAKFTIAVINTKGRVGDEAFADFLEVGYTPENALDVVLGVSLASLCNYANNMADTPINPELQQYVK	not failed
MYVLIGGAGLVGLTLAQKLVELGHTVAIIDVDHTACRYAREQVGAMAFEGSAVSTEVLLEAGIRKADALAAVLRNDALNLAMVMLAKHYGVSHILSRMRHADFAQPLRLAGANHVISTVELSVSTMVNAIEYPQVESMMHFEQGQIEVLKISIPNSCYVANRSLAEIAQDSRFPSGSLIIGYQPHPHEDLVIPNGSTVLESGSTILIATKPGSLHQVIDFIEGCKLEHHHHHH	not failed
MNRVYVGTVSAVTDIGVFVNLNKRLRGLIHRRNLGNNRFSEDEEILVQVSGIGLSGEIDLKPVKMDGYKVVEISKEVGRVEIAELENLEHHHHHH	failed
MRKKKRLISLLLAVFIAVACLPAGIARADKASSIELKFDRNKGEVGDILIGTVRINNIKNFAGFQVNIVYDPKVLMAVDPETGKEFTSSTFPPGRTVLKNNAYGPIQIADNDPEKGILNFALAYSYIAGYKETGVAEESGIIAKIGFKILQKKSTAVKFQDTLSMPGAISGTQLFDWDGEVITGYEVIQPDVLSLGDEPYETPGTDIPISDNPAATPSSTPSVTPSPEVKPTQTPSPAENSAKVELEPVLDNATGEAKAAIDEEKLNKALDEAKKSEDDKLVELNIKKVENADAYIQQLPAKFLIKSDAEYKLRIATEQGIIEVPANMLNTADISKLVKNDSVVEFVIRKVKVDELGAELKEKIGNRPVIDISVVVDGKKVEWSNYKAKVKISIPYKPDAKELENHEHIVVLHIDDAGKAVSVPSGKYEPSLGVVTFETNHLSKYAVSYVYKTFADIGSYAWAKKQIEVLASKGVINGTSDTTFTPQADITRADFMILLVKALGLTAEVTSNFDDVSEKDYYYEYVGIAKELGITTGVGNNKFNPKAKITRQDMMVLTTNALRIAGKISSTGTRADVERFSDKDQIASYAVEGVATLVKEGIVVGSGDIINPRGNASRAELAAIIYKIYYK	not failed
MDIIPILLLAAGQSRRMGGADKLMQEIDGMPLLRRTALRAIPVAPVIAALPPAPHPRHGALVGLTLDIVEVPDAAEGMNASLRRAVAALPPEAPAAMILLADLPDLTESDLNTVRRAVDFSQKNLIWRGATEDGQPGHPVVFHRCLFPQLLALRGDQGAQPLVRDHADRVALVPLPGQHARTDLDTPEAWADWRARQQ	failed
MAASFAFLRDIRPYKTSWRIQVKVFHSWRQYTSMTGETLELVLVDAHGVKIHASVKKDLVSNFVNNLLLNEWRFIETFALNHASGQFRPTGHLYKMTFVTGTQCILLDVMGQVVDIGELETLEAKNKPTIKLDFELRDDTDERMSCTLWGAFAQSVFSACEFADGQMVICVLRFAKIKSYKGVRSFSNSFYASQVHINPDFPEVQAFVSRVPKFHMVTVKQDDDCKQYERKSIRDFLHSMEVRVVCTIYALDTDWSWYYFSCRNCNKKVTHIHAGVNTTSLKSSKPRFWCDVCKNGVTNVQAK	failed
MAVISPATRFAPPLNRPFHRRSILASFHSSSRNFLFLGKPTPSSTIVSVRCQKPVSDGVSSMESMNHVASSVSSSIDFLTLCHRLKGINGPESIADHMYRMALMALIAGDLTGVDRERCIKMAIVHDIAEAIVGDITPSDGVPKEEKSRRETAALKEMCEVLGGGLRAEEITELWLEYENNASLEANIVKDFDKVEMILQALEYEAEHGKVLDEFFISTAGKFQTEIGKSWAAEINARRKSQLTNRQR	failed
MGTTQLESVPEPKYWHLKTVLSEALDSEFSVGEILPNERDLAARFGVARATLRQALEQLELEGRLQRRRGVGTTVAPPRMGVAVGSEQHTWPGAAGDAWQPVDCTVAAPPPAVAGVLETGRNEQVHTVRRSRVTHGHPVAAELLYIPDFSVPDLSAIDAPSGAARARAVLRELQRLELEGQDRAVELGSARAEDAKELDRLPGAPVLVVTTRFFAEGRAAAVSVATYRADTCRLTFGDSGGVEIHHDPERRAS	failed
TYHRLALQRENASLNPVGQMVAVNGYKISVFVKGQGSQTLVFLSGAGTASPILDFKDVYDGFSKEYKIVVVERADYGYSEDTSKSRDVSVILSETRQSLAKSQVSGPYIILSHSMASLETLLWQENYPSEVKAVVCLDWAFPESYFQLKRHPQMLRLARWESQLGLLRLLPRQLYMPNENLSDSDRRLYQEIAYRQLLSQAMLNESLCAKENDKKVNSTSIKSQMPVLLMVSNGKGTGFGQEQWRHYATSFAKGQKNMEVTYYDSPHYFYHYQTKEMIRSIEEFVQE	failed
